In PMC5187433, “A bromodomain–DNA interaction facilitates acetylation-dependent bivalent nucleosome recognition by the BET protein BRDT” (Nature Communications, 2016) one finds Kd and binding signal (fold reduced affinity vs WT) data, which are given here for two sequences.

Common to all, as to experiment: ITC
One data set deals with N-BRDT(1) (Homo sapiens) (UniProt Q58F21). To be noted: EMSA: 20 mM Tris pH 7.5, 100 mM NaCl, 5 mM DTT, 0.5 mM EDTA, 4 C, ITC: 20 mM Tris pH 8.0, 150 mM NaCl, 1 mM EDTA, 1 mM TCEP, 20 C, NMR at 34 C.
Data set [1] has as its target N-BRDT(1) K41S K41S (Homo sapiens) (UniProt Q58F21). The note with it: histone H4K5acK8ac (H4 A15C ligation); EMSA: 20 mM Tris pH 7.5, 100 mM NaCl, 5 mM DTT, 0.5 mM EDTA, 4 C; ITC: 20 mM Tris pH 8.0, 150 mM NaCl, 1 mM EDTA, 1 mM TCEP, 20 C; NMR at 34 C.
Data set [2] deals with N-BRDT(1) 3KE K37E;K41E;K45E (Homo sapiens) (UniProt Q58F21). To be noted: histone H4K5acK8ac (H4 A15C ligation); EMSA: 20 mM Tris pH 7.5, 100 mM NaCl, 5 mM DTT, 0.5 mM EDTA, 4 C; ITC: 20 mM Tris pH 8.0, 150 mM NaCl, 1 mM EDTA, 1 mM TCEP, 20 C; NMR at 34 C.
In data set [3] the target is N-BRDT(1) 3KS K37S;K41S;K45S (Homo sapiens) (UniProt Q58F21). To be noted: histone H4K5acK8ac (H4 A15C ligation); EMSA: 20 mM Tris pH 7.5, 100 mM NaCl, 5 mM DTT, 0.5 mM EDTA, 4 C; ITC: 20 mM Tris pH 8.0, 150 mM NaCl, 1 mM EDTA, 1 mM TCEP, 20 C; NMR at 34 C.

For orientation: Kd means the concentration at which binding is half-saturated. Read a low Kd as higher affinity. The sequence “TCGGGGGCCGCCCTGGAGAATCCCGGTGCCGAGGCCGCTCAATTGGTCGTAGACAGCTCTAGCACCGCTTAAACGCACGTACGCGCTGTCCCCCGCGTTTTAACCGCCAAGGGGATTACTCCCTAGTCTCCAGGCACGTGTCAGATATATACATCCTGTGCATGTAC / CCGAGTACATGCACAGGATGTATATATCTGACACGTGCCTGGAGACTAGGGAGTAATCCCCTTGGCGGTTAAAACGCGGGGGACAGCGCGTACGTGCGTTTAAGCGGTGCTAGAGCTGTCTACGACCAATTGAGCGGCCTCGGCACCGGGATTCTCCAGGGCGGCCC [chimeric H3-H4K5acK8ac nucleosome (167 bp Widom)]” yielded a Kd in the data set with N-BRDT(1) (Homo sapiens) (H4K5acK8ac tail ligated to H3 core, WT H2A, H2B, H4) of 5 µM.

“TCGGGGGCCGCCCTGGAGAATCCCGGTGCCGAGGCCGCTCAATTGGTCGTAGACAGCTCTAGCACCGCTTAAACGCACGTACGCGCTGTCCCCCGCGTTTTAACCGCCAAGGGGATTACTCCCTAGTCTCCAGGCACGTGTCAGATATATACATCCTGTGCATGTAC / CCGAGTACATGCACAGGATGTATATATCTGACACGTGCCTGGAGACTAGGGAGTAATCCCCTTGGCGGTTAAAACGCGGGGGACAGCGCGTACGTGCGTTTAAGCGGTGCTAGAGCTGTCTACGACCAATTGAGCGGCCTCGGCACCGGGATTCTCCAGGGCGGCCC [H4K5acK8ac nucleosome (167 bp Widom)]”: the values for the Kd (in data set [1]; in the data set with N-BRDT(1) (Homo sapiens) (histone H4K5acK8ac (H4 A15C ligation)); in data set [3]) were 7 µM, 2 µM and 9 µM, respectively. Moreover, the binding signal (fold reduced affinity vs WT) in data set [2] stood at 5.
